# Assay results published in US10301596B2, “Method of repairing damaged chondrocytes via low-dose irradiation” (KOREA INSTITUTE OF RADIOLOGICAL & MEDICAL SCIENCES, priority 2013, dated 2019).
# B1: epidermal growth factor (protein, UniProt P01133 23-1207, looked up)
# Pro-epidermal growth factor: PQHWSCPEGTLAGNGNSTCVGPAPFLIFSHGNSIFRIDTEGTNYEQLVVDAGVSVIMDFHYNEKRIYWVDLERQLLQRVFLNGSRQERVCNIEKNVSGMAINWINEEVIWSNQQEGIITVTDMKGNNSHILLSALKYPANVAVDPVERFIFWSSEVAGSLYRADLDGVGVKALLETSEKITAVSLDVLDKRLFWIQYNREGSNSLICSCDYDGGSVHISKHPTQHNLFAMSLFGDRIFYSTWKMKTIWIANKHTGKDMVRINLHSSFVPLGELKVVHPLAQPKAEDDTWEPEQKLCKLRKGNCSSTVCGQDLQSHLCMCAEGYALSRDRKYCEDVNECAFWNHGCTLGCKNTPGSYYCTCPVGFVLLPDGKRCHQLVSCPRNVSECSHDCVLTSEGPLCFCPEGSVLERDGKTCSGCSSPDNGGCSQLCVPLSPVSWECDCFPGYDLQLDEKSCAASGPQPFLLFANSQDIRHMHFDGTDYGTLLSQQMGMVYALDHDPVENKIYFAHTALKWIERANMDGSQRERLIEEGVDVPEGLAVDWIGRRFYWTDRGKSLIGRSDLNGKRSKIITKENISQPRGIAVHPMAKRLFWTDTGINPRIESSSLQGLGRLVIASSDLIWPSGITIDFLTDKLYWCDAKQSVIEMANLDGSKRRRLTQNDVGHPFAVAVFEDYVWFSDWAMPSVMRVNKRTGKDRVRLQGSMLKPSSLVVVHPLAKPGADPCLYQNGGCEHICKKRLGTAWCSCREGFMKASDGKTCLALDGHQLLAGGEVDLKNQVTPLDILSKTRVSEDNITESQHMLVAEIMVSDQDDCAPVGCSMYARCISEGEDATCQCLKGFAGDGKLCSDIDECEMGVPVCPPASSKCINTEGGYVCRCSEGYQGDGIHCLDIDECQLGEHSCGENASCTNTEGGYTCMCAGRLSEPGLICPDSTPPPHLREDDHHYSVRNSDSECPLSHDGYCLHDGVCMYIEALDKYACNCVVGYIGERCQYRDLKWWELRHAGHGQQQKVIVVAVCVVVLVMLLLLSLWGAHYYRTQKLLSKNPKNPYEESSRDVRSRRPADTEDGMSSCPQPWFVVIKEHQDLKNGGQPVAGEDGQAADGSMQPTSWRQEPQLCGMGTEQGCWIPVSSDKGSCPQVMERSFHMPSYGTQTLEGGVEKPHSLLSANPLWQQRALDPPHQMELTQ
# modifications: Pro-epidermal growth factor
# notes: agent known to induce dedifferentiation of chondrocytes
# System: chondrocytes
# Experiment: Levels of differentiation- and inflammation-related proteins (type II collagen, Sox-9, I-κB, COX-2), Western blot in chondrocytes
# Type: cell-based
# Conditions: 10 ng/mL EGF, 10 nM PMA or 1 μM RA
# Protocol: First, the chondrocytes derived from joints were cultured in a DMEM medium according to a known method (E. H. Hong, et al., J. Biol. Chem. 285:1283-1295, 2010). Then, the cultured chondrocytes were inoculated into culture dishes at a density of 5×10^4 cells/cm^2, which were irradiated with 0 cGy, 0.5 cGy, 1.0 cGy, 1.5 cGy, and 2.0 cGy LDR using a ^137Cs-ray source (KIRMS, Korea), and the levels of type II collagen or Sox-9 protein, which are cartilage-specific differentiation marker proteins, and I-κB or COX-2 protein, which are inflammation-related proteins, were determined via Western blot analysis, and the transcriptional activity of Sox-9 protein and NF-κB, which is affected by I-κB, were determined by reporter gene assay (FIGS. 1a and b). […]
# Finally, chondrocytes were transfected with 3 μg of GFP-labeled S83A α-catenin, FLAG-labeled S33A β-catenin, or wild type γ-catenin, reacted with or without treatment with 5 μM or 10 μM BAY 11-7082 for 24 hours, and the levels of I-κB and COX-2 proteins were determined via Western blot analysis (FIG. 5g). […]
molecule,measurement,value
B1,"pathological changes induced by soluble factor (type II collagen, Sox-9, COX-2 proteins)",inhibition of expression of type II collagen and Sox-9 proteins and induction of COX-2 protein expression
